According to paper PMC9798253 (Protein Science : A Publication of the Protein Society, 2023):

Target: MBP-tagged ADD domain of DNMT3A (476-614) (human, UniProt Q9Y6K1 476-614)
Test: peptide or protein array

EKSPGKLLVKMPFQT [TRD 214–228 peptide (WT, 15mer, E214-T228)]: binds.
